biological target: 6×His-tagged receptor-binding domain (RBD) of SARS-CoV-2 spike, B.1.617.2 (Delta) (SARS-CoV-2) (UniProt P0DTC2); test: SPR

Going from “ACE2(18–615)-QMP: monomeric ACE2 peptidase domain (residues 18–615) fused to the N-terminal end of QMP human albumin (from UniProt Q9BYF1-1;P02768)” to “ACE2(18–740)-WT: truncated dimeric human ACE2 (residues 18–740) fused to the N-terminal end of full- (from UniProt Q9BYF1-1;P02768)”, the Kd falls from 80.3 nM to 1.3 nM (62-fold).

First: ACE2(18–615)-WT: monomeric ACE2 peptidase domain (residues 18–615) fused to the N-terminal end of fu (from UniProt Q9BYF1-1;P02768)
Second: ACE2(18–740)-QMP: truncated dimeric human ACE2 (residues 18–740) fused to the N-terminal end of engi (from UniProt Q9BYF1-1;P02768)
The Kd of the first is 88-fold higher: 175 nM for the first, 2 nM for the second. The second binds more tightly here.

For “ACE2-YTY-QMP: dimeric ACE2 with T27Y/L79T/N330Y (YTY) fused to QMP albumin (from UniProt Q9BYF1-1;P02768)”, the Kd was 0.2 nM.

Going from “ACE2(18–615)-QMP: monomeric ACE2 peptidase domain (residues 18–615) fused to the N-terminal end of QMP human albumin (from UniProt Q9BYF1-1;P02768)” to “ACE2(18–740)-WT: truncated dimeric human ACE2 (residues 18–740) fused to the N-terminal end of full- (from UniProt Q9BYF1-1;P02768)”, the koff falls from 0.0258 s⁻¹ to 0.00021 s⁻¹ (120-fold).

First: ACE2(18–615)-WT: monomeric ACE2 peptidase domain (residues 18–615) fused to the N-terminal end of fu (from UniProt Q9BYF1-1;P02768)
Second: ACE2(18–740)-QMP: truncated dimeric human ACE2 (residues 18–740) fused to the N-terminal end of engi (from UniProt Q9BYF1-1;P02768)
The koff of the first is 35-fold higher: 0.0083 s⁻¹ for the first, 0.00024 s⁻¹ for the second.

For “ACE2-YTY-QMP: dimeric ACE2 with T27Y/L79T/N330Y (YTY) fused to QMP albumin (from UniProt Q9BYF1-1;P02768)”, the koff was 4e-05 s⁻¹.

First: ACE2(18–615)-QMP: monomeric ACE2 peptidase domain (residues 18–615) fused to the N-terminal end of QMP human albumin (from UniProt Q9BYF1-1;P02768)
Second: ACE2(18–740)-WT: truncated dimeric human ACE2 (residues 18–740) fused to the N-terminal end of full- (from UniProt Q9BYF1-1;P02768)
The kon of the first is 2-fold higher: 321000 M⁻¹ s⁻¹ for the first, 159000 M⁻¹ s⁻¹ for the second.

Going from “ACE2(18–615)-WT: monomeric ACE2 peptidase domain (residues 18–615) fused to the N-terminal end of fu (from UniProt Q9BYF1-1;P02768)” to “ACE2(18–740)-QMP: truncated dimeric human ACE2 (residues 18–740) fused to the N-terminal end of engi (from UniProt Q9BYF1-1;P02768)”, the kon rises from 47000 M⁻¹ s⁻¹ to 119000 M⁻¹ s⁻¹ (2.5-fold).

“ACE2-YTY-QMP: dimeric ACE2 with T27Y/L79T/N330Y (YTY) fused to QMP albumin (from UniProt Q9BYF1-1;P02768)” gave a kon of 201000 M⁻¹ s⁻¹.
